Measured values from publication PMC2064341 (The Journal of Cell Biology, 2006).

Biological target: T1, 6-His-tagged RLIP76ΔRBD (human, UniProt Q15311 1-392)
T1 sequence: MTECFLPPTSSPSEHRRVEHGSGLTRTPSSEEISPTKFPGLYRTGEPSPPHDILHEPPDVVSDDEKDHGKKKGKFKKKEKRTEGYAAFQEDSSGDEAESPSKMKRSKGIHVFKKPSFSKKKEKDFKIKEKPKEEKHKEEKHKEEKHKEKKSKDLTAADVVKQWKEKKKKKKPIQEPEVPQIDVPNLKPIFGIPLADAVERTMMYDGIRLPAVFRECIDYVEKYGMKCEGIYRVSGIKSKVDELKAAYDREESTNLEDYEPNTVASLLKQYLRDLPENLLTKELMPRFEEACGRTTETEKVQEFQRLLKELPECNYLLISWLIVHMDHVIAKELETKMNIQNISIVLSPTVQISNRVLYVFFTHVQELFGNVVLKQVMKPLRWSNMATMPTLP
Assay: pull-down

binding result: binds
B1: GST–R-Ras(wt) (natural protein, human, UniProt P10301 1-218, looked up)
chain: MSSGAASGTGRGRPRGGGPGPGDPPPSETHKLVVVGGGGVGKSALTIQFIQSYFVSDYDPTIEDSYTKICSVDGIPARLDILDTAGQEEFGAMREQYMRAGHGFLLVFAINDRQSFNEVGKLFTQILRVKDRDDFPVVLVGNKADLESQRQVPRSEASAFGASHHVAYFEASAKLRLNVDEAFEQLVRAVRKYQEQELPPSPPSAPRKKGGGCPCVLL
